PMC13425845

Assays:
[1] = molecular target: human γD-crystallin C18T/C32A/C41A/C78A (human); test: intact protein electrospray mass spectrometry; Bruker Impact II QTOF electrospray mass spectrometer with HPLC; isotopically averaged mass of monomer and dimer samples
[2] = molecular target: human γD-crystallin C18S/C32S/C41S/C78S (human); test: as above

## human γD-crystallin C18T/C32A/C41A/C78A (natural protein)
[1]
  stoichiometry N: 2

## human γD-crystallin C18S/C32S/C41S/C78S (natural protein)
[2]
  stoichiometry N: 2
